Results as given in paper doi:10.1101/2024.04.20.590211.
Values joined by “and” are separate entries in the source; they are usually repeats but may differ in a detail not shown here. Identical values can stand only once.

Tests used:
[1] = target: FluPolA/H7N9-WT, wild-type influenza A/Zhejiang/DTID-ZJU01/2013(H7N9) polymerase heterotrimer (influenza A virus A/Zhejiang/DTID-ZJU01/2013(H7N9)) (UniProt M9TI86); assay: SEC
[2] = target: FluPolB, influenza B/Memphis/2003 polymerase heterotrimer (wild type) (influenza B virus B/Memphis/2003) (UniProt Q5V8Z9); assay: mass photometry

Row | Substance | stoichiometry N [1] | fraction of dimers [2] | stoichiometry N [2]
1 | FluPolA/H7N9-WT, wild-type influenza A/Zhejiang/DTID-ZJU01/2013(H7N9) polymerase heterotrimer (from UniProt M9TI86;M9TLW3;X5F427) (complex) | 2 | – | –
2 | FluPolB, influenza B/Memphis/2003 polymerase heterotrimer (wild type) (from UniProt Q5V8Z9;Q5V8Y6;Q5V8X3) (complex) | – | 7% and 15% | 2
